Experimental data reported in US20220396616A1 (SANYOU BIOPHARMACEUTICALS, published 2022).
Residue numbers refer to the chain shown, from its start.

B1: A18-1-48 (VHH)
VHH: EVQLVESGGGLVQPGGSLRLSCAASGNIFRIDTMGWYRQAPGKQREFVAGISRGGSTNYAHSVKERFTISRDNAKNTMYLQMNSLKSEDTAGYYCNAQAWDPGTIRYLEVWGQGTLVTVSA
B2: A18-1-78 (VHH)
VHH: B1 VHH with V5Q
B3: A18-1-70 (VHH)
VHH: B1 VHH with E1Q, F47L, S56T, N58T, I105F
B4: A18-1-50 (VHH)
VHH: B1 VHH with L4V, V5Q, F47L, S56T, N58T, I105F
B5: A293-82 (VHH)
VHH: B1 VHH with L4V, G35V, F47L, S56T, E65G, G92T, P102V
B6: A18-1-75 (VHH)
VHH: B1 VHH with G35V, F47L, S56T, E65G, G92T, P102V
B7: A18-1-64 (VHH)
VHH: B1 VHH with E1Q, A121S
B8: A-2-4 (VHH)
VHH: B1 VHH with L4V, V5Q, P14A, G16T, F47L, S56T, N58T, I105F
notes: also called candidate nanobody A-2-4
B9: A18-1-42 (VHH)
VHH: EVQVVESGGGLVQPGGSLRLSCAASGSILHIPVMSWYRQAPGKQRELVAGISTGGTTNYGDSVKGRFTISRDNAKNTVYLQMNSLKPEDTAAYYCNVLVVSGIGSHLEVWG
notes: also called candidate nanobody A18-1-42
B10: A18-1-44 (VHH)
VHH: B9 VHH with V4L, L29F, H30N, I31L, A92V, V100I
B11: A18-1-45 (VHH)
VHH: B9 VHH with V4L, V5Q, S27I, L29F, H30N, A92V
B12: A18-1-6 (VHH)
VHH: B9 VHH with V5Q, L29F, H30N, N76T, A92V, V100I
B13: A18-1-63 (VHH)
VHH: B9 VHH with E1Q, V4L, V5Q, L29F, H30N, S35G, A92V, H106T
notes: also called candidate nanobody A18-1-63
B14: A293-34 (VHH)
VHH: B9 VHH with E1Q, V4L, V5Q, S27T, I28F, L29F, H30N, S35G, A92V, V100I
notes: also called candidate nanobody A293-34
B15: A18-1-62 (VHH)
VHH: B9 VHH with E1Q, V4L, S27T, L29F, H30N, S35G, A92V, V100I
B16: A18-1-65 (VHH)
VHH: B9 VHH with V4L, V5Q, S27T, L29F, H30N, I31L, K75R, A92V
B17: A293-55 (VHH)
VHH: B9 VHH with E1Q, V4L, L11S, L29F, P32V, S35G, I51M, A92V, V100I
B18: A-2-3 (VHH)
VHH: B9 VHH with V4L, L29F, H30N, I31L, A92V
B19: IMAB362 antibody (antibody, V domains shown)
VH: QVQLQQPGAELVRPGASVKLSCKASGYTFTSYWINWVKQRPGQGLEWIGNIYPSDSYTNYNQKFKDKATLTVDKSSSTAYMQLSSPTSEDSAVYYCTRSWRGNSFDYWGQGTTLTVSS
VL: DIVMTQSPSSLTVTAGEKVTMSCKSSQSLLNSGNQKNYLTWYQQKPGQPPKLLIYWASTRESGVPDRFTGSGSGTDFTLTISSVQAEDLAVYYCQNDYSYPFTFGSGTKLEIKR
B20: humanized antibody NA3S-H1 (Fc fusion)
chain: QVQLVESGGGLVQPGGSLRLSCAASGSIFNIPVMGWYRQAPGKQRELVAGISTGGTTNYGDSVKGRFTISRDNAKNTVYLQMNSLKPEDTAVYYCNVLVVSGIGSTLEVWGQGTLVTVSS
notes: Humanized form of NA3-S; also called candidate antibody NA3S-H1; humanized molecule NA3S-H1; not shown: a human IgG Fc is implied (detected with anti-human IgG Fc)

target: T1, human CLDN18.2 (human); assay: flow cytometry, phage supernatant on hCLDN18.2-expressing HEK293T cells
T1 construct: also called hCLDN18.2; huCLDN18.2
From the text: (§1) firstly, 1×10⁵ of human CLDN18.2-HEK293T and human CLDN18.1-HEK293 cells were taken, respectively and centrifuged at a low speed of 500 g, and the supernatant was removed.

Row | Binder | mean fluorescence intensity
1 | B1 | 357000 MFI
2 | B2 | 385000 MFI
3 | B3 | 402000 MFI
4 | B4 | 403000 MFI
5 | B5 | 442000 MFI
6 | B6 | 387000 MFI
7 | B7 | 406000 MFI
8 | B8 | 592000 MFI
9 | B9 | 396000 MFI
10 | B10 | 390000 MFI
11 | B11 | 369000 MFI
12 | B12 | 396000 MFI
13 | B13 | 385000 MFI
14 | B14 | 454000 MFI
15 | B15 | 372000 MFI
16 | B16 | 428000 MFI
17 | B17 | 392000 MFI
18 | B18 | 570000 MFI

target: T1, human CLDN18.2; assay: flow cytometry, phage supernatant; hCLDN18.2 cells against hCLDN18.1 cells
From the text: as §1

Row | Binder | ratio of mean fluorescence intensities on hCLDN18.2 and hCLDN18.1 cells
19 | B1 | 103
20 | B2 | 105
21 | B3 | 65
22 | B4 | 67
23 | B5 | 102
24 | B6 | 99
25 | B7 | 116
26 | B8 | 137
27 | B9 | 392
28 | B10 | 104
29 | B11 | 78
30 | B12 | 201
31 | B13 | 2200
32 | B14 | 187
33 | B15 | 126
34 | B16 | 73
35 | B17 | 117
36 | B18 | 175

target: T2, human CLDN18.1 (human, UniProt P56856 1-261); assay: flow cytometry, phage supernatant on hCLDN18.1-expressing HEK293 cells
T2 construct: Full length, overexpressed on HEK293 cells; also called hCLDN18.1; human CLDN18.1-HEK293
T2 sequence (P56856 whole entry): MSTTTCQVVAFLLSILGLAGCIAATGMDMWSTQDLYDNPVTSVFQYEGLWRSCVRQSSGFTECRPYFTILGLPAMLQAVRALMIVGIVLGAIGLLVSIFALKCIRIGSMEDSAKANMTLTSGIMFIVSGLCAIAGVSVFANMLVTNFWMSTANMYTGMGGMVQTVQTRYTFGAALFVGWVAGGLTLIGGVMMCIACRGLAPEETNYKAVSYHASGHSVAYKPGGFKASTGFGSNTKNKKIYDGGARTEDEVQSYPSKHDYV
From the text: as §1

Row | Binder | mean fluorescence intensity
37 | B1 | 3450 MFI
38 | B2 | 3680 MFI
39 | B3 | 6230 MFI
40 | B4 | 6040 MFI
41 | B5 | 4320 MFI
42 | B6 | 3890 MFI
43 | B7 | 3500 MFI
44 | B8 | 4330 MFI
45 | B9 | 1010 MFI
46 | B10 | 3740 MFI
47 | B11 | 4750 MFI
48 | B12 | 1970 MFI
49 | B13 | 175 MFI
50 | B14 | 2430 MFI
51 | B15 | 2940 MFI
52 | B16 | 5890 MFI
53 | B17 | 3340 MFI
54 | B18 | 3260 MFI

target: T1, human CLDN18.2; assay: cell-based or functional assay

Row | Binder | CDC cell killing on CLDN18.2-KATOIII cells, EC50 (run with NA3S-H1) | CDC cell killing on human CLDN18.2-HEK293T cells, EC50 | CDC cell killing on human CLDN18.2-KATOIII tumor cells, EC50 (run with NA1-S, FIG. 6b) | CDC cell killing on human CLDN18.2-KATOIII tumor cells, EC50 (run with NA3-S, FIG. 7d) | Fab-ZAP cell killing (internalization) on CLDN18.2-HEK293T cells, IC50 (run with NA1-S) | Fab-ZAP cell killing (internalization) on CLDN18.2-HEK293T cells, IC50 (run with NA3-S) | CDC cell killing on CLDN18.2-KATOIII cells, EC50
55 | B19 | 149 nM | 0.936 nM | 50.9 nM | 85.8 nM | 0.24 nM | 0.32 nM | 
56 | B20 |  |  |  |  |  |  | 10.4 nM

target: T2, human CLDN18.1; assay: flow cytometry, phage supernatant on human CLDN18.1-HEK293 cells
From the text: as §1

Row | Binder | binding result
57 | B9 | no binding
58 | B10 | no binding
59 | B11 | no binding
60 | B12 | no binding
61 | B13 | no binding
62 | B14 | no binding
63 | B15 | no binding
64 | B16 | no binding
65 | B17 | no binding
66 | B18 | no binding

target: T2, human CLDN18.1; assay: flow cytometry on CLDN18.1-HEK293 cells, different concentrations
Method: Therefore, in this example, different concentrations of the antibody (including the high concentration of 100 μg/mL) were used to incubate with CLDN18.1-HEK293 in vitro. […] The antibody at different concentrations and target cells CLDN18.1-HEK293 were incubated at 4° C. for 1 h and then rinsed three times with the FACS buffer mentioned above. 0.5 μg (0.5 mg/ml) of PE-labelled goat anti-human IgG Fc antibody (Abcam, ab98596) was added and incubated at 4° C. for another 1 h. […] The binding strength and the positive rate of cell binding were recorded.

Row | Binder | binding result
67 | B20 | no binding (tested: 100 µg/mL)
